Reference: paper PMC12013499

Experiments:
Test in all cases: EMSA
Details in all cases: EMSA: 0.5 pmol 32P-tRNA, 0-4 uM enzyme, 20 C, 10 min, 18.5% glycerol added, 5% native PAGE; buffer and pH not given (as in cited refs); n = 3
[1] = system: T1, RcuCCA (Romanomermis culicivorax)
T1 sequence: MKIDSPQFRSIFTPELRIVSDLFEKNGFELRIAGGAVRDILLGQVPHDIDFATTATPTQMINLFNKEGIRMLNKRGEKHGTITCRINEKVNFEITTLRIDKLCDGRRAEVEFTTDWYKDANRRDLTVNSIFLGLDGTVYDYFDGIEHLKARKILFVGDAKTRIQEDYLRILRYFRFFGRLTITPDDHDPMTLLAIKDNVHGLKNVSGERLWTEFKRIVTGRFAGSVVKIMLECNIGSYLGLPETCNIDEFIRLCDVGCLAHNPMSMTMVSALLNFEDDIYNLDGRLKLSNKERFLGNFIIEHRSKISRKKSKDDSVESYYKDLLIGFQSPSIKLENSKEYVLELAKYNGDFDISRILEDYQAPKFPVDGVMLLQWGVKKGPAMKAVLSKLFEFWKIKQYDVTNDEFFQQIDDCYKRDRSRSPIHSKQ

AsuCCA (Ascaris suum) = system: T2, AsuCCA (Ascaris suum)
T2 sequence: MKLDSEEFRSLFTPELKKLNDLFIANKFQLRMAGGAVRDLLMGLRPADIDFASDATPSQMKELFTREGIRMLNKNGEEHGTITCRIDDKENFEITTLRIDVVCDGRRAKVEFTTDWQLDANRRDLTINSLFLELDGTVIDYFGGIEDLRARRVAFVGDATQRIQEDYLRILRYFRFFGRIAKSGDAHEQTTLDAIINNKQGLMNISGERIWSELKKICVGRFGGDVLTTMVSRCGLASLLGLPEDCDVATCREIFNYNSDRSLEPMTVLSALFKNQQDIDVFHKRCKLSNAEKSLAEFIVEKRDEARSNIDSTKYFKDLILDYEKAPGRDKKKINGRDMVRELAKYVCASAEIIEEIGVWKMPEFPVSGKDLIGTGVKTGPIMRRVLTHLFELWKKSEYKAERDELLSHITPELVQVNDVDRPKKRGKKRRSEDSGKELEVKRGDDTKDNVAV

[2] = system: T3, HsaCCA-AsuC40 (Homo sapiens / Ascaris suum chimera)
T3 sequence: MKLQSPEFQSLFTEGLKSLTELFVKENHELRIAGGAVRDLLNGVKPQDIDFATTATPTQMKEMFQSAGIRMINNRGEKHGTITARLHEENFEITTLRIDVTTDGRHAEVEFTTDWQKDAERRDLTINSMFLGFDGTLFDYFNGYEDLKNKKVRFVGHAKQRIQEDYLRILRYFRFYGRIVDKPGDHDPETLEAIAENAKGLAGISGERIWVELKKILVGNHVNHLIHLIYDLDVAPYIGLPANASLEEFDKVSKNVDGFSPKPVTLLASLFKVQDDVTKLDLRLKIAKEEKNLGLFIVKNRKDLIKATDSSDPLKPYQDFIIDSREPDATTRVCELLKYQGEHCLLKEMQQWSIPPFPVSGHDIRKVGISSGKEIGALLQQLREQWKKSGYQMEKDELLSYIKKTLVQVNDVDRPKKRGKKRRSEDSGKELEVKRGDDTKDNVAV

[3] = system: T4, AsuCCA-Hsaβ (Ascaris suum / Homo sapiens chimera)
T4 sequence: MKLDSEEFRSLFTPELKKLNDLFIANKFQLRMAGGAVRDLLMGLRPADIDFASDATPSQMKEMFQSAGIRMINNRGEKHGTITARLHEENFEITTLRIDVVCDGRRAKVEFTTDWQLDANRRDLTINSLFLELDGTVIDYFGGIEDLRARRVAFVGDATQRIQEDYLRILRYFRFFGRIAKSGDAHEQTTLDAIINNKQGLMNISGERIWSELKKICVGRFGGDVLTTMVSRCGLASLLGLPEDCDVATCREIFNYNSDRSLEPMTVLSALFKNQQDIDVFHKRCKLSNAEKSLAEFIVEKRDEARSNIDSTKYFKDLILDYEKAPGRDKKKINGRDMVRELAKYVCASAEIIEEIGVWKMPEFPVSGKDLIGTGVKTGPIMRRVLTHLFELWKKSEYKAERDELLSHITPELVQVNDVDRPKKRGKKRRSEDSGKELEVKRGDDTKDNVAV

[4] = system: T5, AsuCCA ΔC40 delC-terminal 40 residues (Ascaris suum)
T5 sequence: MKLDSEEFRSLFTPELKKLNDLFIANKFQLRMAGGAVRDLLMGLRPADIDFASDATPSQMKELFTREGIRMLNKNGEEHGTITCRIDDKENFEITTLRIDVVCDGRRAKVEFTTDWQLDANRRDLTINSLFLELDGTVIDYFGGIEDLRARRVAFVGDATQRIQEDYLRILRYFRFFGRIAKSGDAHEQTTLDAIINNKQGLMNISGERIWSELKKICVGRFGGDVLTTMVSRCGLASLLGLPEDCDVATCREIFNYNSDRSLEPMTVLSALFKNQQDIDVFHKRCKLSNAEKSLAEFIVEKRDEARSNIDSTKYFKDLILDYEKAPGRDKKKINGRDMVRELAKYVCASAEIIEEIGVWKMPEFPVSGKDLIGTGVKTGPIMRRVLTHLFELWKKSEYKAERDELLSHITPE

Row | Substance | Kd [1] [nM] | Kd (AsuCCA (Ascaris suum)) [nM] | Kd [2] [nM] | Kd [3] [nM] | Kd [4] [nM]
1 | Rcu mt-tRNAIle (armless) | 1400 | 1100 | 600 | 300 | 
2 | Sce tRNAPhe (canonical) | 1600 | 500 | 700 | 300 | 1700
